Data as given in publication PMC6600395, “p53 Binds Preferentially to Non-B DNA Structures Formed by the Pyrimidine-Rich Strands of GAA·TTC Trinucleotide Repeats Associated with Friedreich’s Ataxia”.

How the values were obtained:
[1] = biological target: T1, p53 (wild type, full length) (human, UniProt P04637 1-393); assay: ELISA; Kd only in figure; EMSA: 5 mM Tris-HCl pH 7.6, 0.5 mM EDTA, 0.5 mM DTT, 0.01% Triton X-100, 50 mM KCl, 15 min on ice (agarose 4 °C), pBSK/SmaI competitor in PAGE EMSA; ELISA: same without EDTA, 4 °C, 20 min; conditions: protein: recombinant; tags: none stated for pT7-7wtp53 (Methods 3.3 says purified via GST tag); chain copies: 4; label: 5'-32P on Lock-F (EMSA); 3'-biotin on Lock-F (ELISA); lock clamp, T loop in strand 1; 3' overhang 3 nt on lock strand
T1 sequence (P04637 whole entry): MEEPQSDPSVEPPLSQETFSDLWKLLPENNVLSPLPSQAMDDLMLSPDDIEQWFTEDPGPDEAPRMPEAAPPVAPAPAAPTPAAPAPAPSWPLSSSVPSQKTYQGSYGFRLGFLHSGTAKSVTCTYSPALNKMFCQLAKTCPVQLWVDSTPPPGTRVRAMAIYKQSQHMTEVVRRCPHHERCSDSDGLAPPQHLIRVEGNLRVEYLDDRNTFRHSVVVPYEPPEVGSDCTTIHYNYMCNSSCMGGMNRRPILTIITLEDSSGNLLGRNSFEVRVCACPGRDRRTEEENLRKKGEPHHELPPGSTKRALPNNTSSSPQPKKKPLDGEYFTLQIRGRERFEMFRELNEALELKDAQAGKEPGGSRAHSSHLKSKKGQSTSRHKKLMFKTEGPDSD

[2] = biological target: p53CT (C-terminal segment) (human, UniProt P04637 320-393); assay: EMSA; 50 ng pBSK/SmaI competitor; EMSA: 5 mM Tris-HCl pH 7.6, 0.5 mM EDTA, 0.5 mM DTT, 0.01% Triton X-100, 50 mM KCl, 15 min on ice (agarose 4 °C), pBSK/SmaI competitor in PAGE EMSA; ELISA: same without EDTA, 4 °C, 20 min; conditions: protein: recombinant, tags: GST (GST-p53CT, pGEX-2TK), chain copies: 4, label: 5'-32P on Lock-F (EMSA), 3'-biotin on Lock-F (ELISA), lock clamp, 3' overhang 3 nt on lock strand
Sequence of p53CT (C-terminal segment) (P04637 320-393): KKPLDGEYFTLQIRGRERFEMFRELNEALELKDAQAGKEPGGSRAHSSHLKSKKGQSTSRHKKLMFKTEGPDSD

p53CD (core domain) [3] = biological target: T2, p53CD (core domain) (human, UniProt P04637 94-312); assay: EMSA; no stable complex; 50 ng pBSK/SmaI; EMSA: 5 mM Tris-HCl pH 7.6, 0.5 mM EDTA, 0.5 mM DTT, 0.01% Triton X-100, 50 mM KCl, 15 min on ice (agarose 4 °C), pBSK/SmaI competitor in PAGE EMSA; ELISA: same without EDTA, 4 °C, 20 min; conditions: protein: recombinant, tags: GST (GST-p53CD, pGEX-4T), label: 5'-32P on Lock-F (EMSA), 3'-biotin on Lock-F (ELISA), lock clamp, 3' overhang 3 nt on lock strand
T2 sequence (P04637 94-312): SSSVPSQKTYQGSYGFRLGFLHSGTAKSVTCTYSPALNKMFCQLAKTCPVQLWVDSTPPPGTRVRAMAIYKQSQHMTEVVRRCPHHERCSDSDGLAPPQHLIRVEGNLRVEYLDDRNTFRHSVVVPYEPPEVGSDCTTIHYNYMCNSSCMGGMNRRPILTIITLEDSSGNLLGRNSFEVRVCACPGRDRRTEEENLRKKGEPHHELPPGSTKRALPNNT

p53CD (core domain) [4] = biological target: T2, p53CD (core domain); assay: EMSA; 50 ng pBSK/SmaI competitor; EMSA: 5 mM Tris-HCl pH 7.6, 0.5 mM EDTA, 0.5 mM DTT, 0.01% Triton X-100, 50 mM KCl, 15 min on ice (agarose 4 °C), pBSK/SmaI competitor in PAGE EMSA; ELISA: same without EDTA, 4 °C, 20 min; conditions: protein: recombinant; tags: GST (GST-p53CD, pGEX-4T); chain copies: 4; label: 32P (EMSA); biotin (ELISA); blunt
[5] = biological target: T1, p53 (wild type, full length); assay: EMSA; strongest binder; 75 ng pBSK/SmaI competitor; EMSA: 5 mM Tris-HCl pH 7.6, 0.5 mM EDTA, 0.5 mM DTT, 0.01% Triton X-100, 50 mM KCl, 15 min on ice (agarose 4 °C), pBSK/SmaI competitor in PAGE EMSA; ELISA: same without EDTA, 4 °C, 20 min; conditions: protein: recombinant; tags: none stated for pT7-7wtp53 (Methods 3.3 says purified via GST tag); chain copies: 4; label: 32P (EMSA); biotin (ELISA); blunt
[6] = biological target: T1, p53 (wild type, full length); assay: EMSA; stronger than TTCNB and FXN-ANB; 50 ng pBSK/SmaI; EMSA: 5 mM Tris-HCl pH 7.6, 0.5 mM EDTA, 0.5 mM DTT, 0.01% Triton X-100, 50 mM KCl, 15 min on ice (agarose 4 °C), pBSK/SmaI competitor in PAGE EMSA; ELISA: same without EDTA, 4 °C, 20 min; conditions: protein: recombinant; tags: none stated for pT7-7wtp53 (Methods 3.3 says purified via GST tag); chain copies: 4; label: 5'-32P on Lock-F; lock clamp, Py-rich loop in strand 1; 3' overhang 3 nt on lock strand
[7] = biological target: T1, p53 (wild type, full length); assay: EMSA; 75 ng pBSK/SmaI competitor; EMSA: 5 mM Tris-HCl pH 7.6, 0.5 mM EDTA, 0.5 mM DTT, 0.01% Triton X-100, 50 mM KCl, 15 min on ice (agarose 4 °C), pBSK/SmaI competitor in PAGE EMSA; ELISA: same without EDTA, 4 °C, 20 min; conditions: protein: recombinant, tags: none stated for pT7-7wtp53 (Methods 3.3 says purified via GST tag), chain copies: 4, label: 5'-32P on Lock-F (EMSA), 3'-biotin on Lock-F (ELISA), lock clamp, 3' overhang 3 nt on lock strand
[8] = unpaired (TTC)11 loop in strand 1

B1: TNB (structured_DNA)
DNA 1: GGGGCCTTAGGTATTTTTTTTTTTTTTTTTTTTTTTTTTTTTTTTTATGGTACCGCGG
DNA 2: CCGCGGTACCATTACCTAAGGCCCCAAC
binding result [1]: binds | binding result ([2]; T loop in strand 1): binds | binding result (p53CD (core domain) [3]; T loop in strand 1): no binding

B2: CON (p53CON) (dsDNA)
DNA 1: GACGGTATCGATAAGAGACATGCCTAGACATGCCTCTTGATATCGAATTC
DNA 2: GAATTCGATATCAAGAGGCATGTCTAGGCATGTCTCTTATCGATACCGTC
binding result (p53CD (core domain) [4]): binds | binding result [5]: binds

B3: FXN-TNB (structured_DNA)
DNA 1: GGGGCCTTAGGTATTTTCTTTATTTTCTTCTTCTTCTTCTTCTTTTTTTTTTTTTTTTGTATTTTTTATGGTACCGCGG
DNA 2: CCGCGGTACCATTACCTAAGGCCCCAAC
binding result [6]: binds

B4: CTGNB (structured_DNA)
DNA 1: GGGGCCTTAGGTACTGCTGCTGCTGCTGCTGCTGCTGCTGCTGCTGATGGTACCGCGG
DNA 2: CCGCGGTACCATTACCTAAGGCCCCAAC
binding result ([2]; (CTG)11 hairpin in strand 1): binds | binding result ([7]; (CTG)11 hairpin in strand 1): binds | binding result (p53CD (core domain) [3]; (CTG)11 hairpin in strand 1): no binding

B5: TTCNB (structured_DNA)
DNA 1: GGGGCCTTAGGTATTCTTCTTCTTCTTCTTCTTCTTCTTCTTCTTCATGGTACCGCGG
DNA 2: CCGCGGTACCATTACCTAAGGCCCCAAC
binding result [2, 8]: binds | binding result [7, 8]: binds | binding result (p53CD (core domain) [3]; [8]): no binding
